The results in this text go back to patent US20240239875A1 (CURIA IP, published 2024).

In experiment [1] the target is T1, SARS-CoV-2 S2 domain (SARS-CoV-2, UniProt P0DTC2 686-1213). In words: ELISA (FIG. 2C grouping). In general terms: In an ELISA, binding on a coated surface is turned into a signal by an enzyme label.
For experiment [2], the target named is T1, SARS-CoV-2 S2 domain. In words: ELISA (FIG. 10 summary).

B1: 1-L10-A (antibody, V domains shown)
VH: EVKLEESGGGLVQPGGSMKLSCVASGFTFNNYWMNWVRQSPEKGLEWVAQMRLKSDNYATHYAESVKGRFTISRDDSKSSVYLQMNNLRAEDTGIYYCIEGYWTYWGQGTLVTVSA
VL: QIVLTQSPAIMSASLGERVTMTCTASSSVSSSYLHWYQQKPGSSPKLWIYSTSNLASGVPARFSGNGSGTSYSLTISSMEAEDAATYYCLQYHRSPPYTFGGGTKLEIK
As to B1, the binding result in experiment [1] was “no binding”.

B2: 7-N20-A (antibody, V domains shown)
VH: QVQLVETGGGLVRPGNSLKLSCVTSGFTFSNYRMHWLRQPPGKRLEWIGIITDKSDNYGANYAESVKGRFAISRDDSKSSVYLEMKRLREEDTATYFCSRDGYDWYFDLWGTGTTVTVSS
VL: DIVMTQSHKFMSTSVGDRVRITCKASQDVGIVVAWYQQKPGQSPKLLIYWASTRHTGVPDRFTGSGSGTDFTLTISNVQSEDLADYFCQQYSSYPTFGGGTKLEIK
In the case of B2, the binding result in experiment [2] was “no binding”.

B3: 7-D7-A (antibody, V domains shown)
VH: QVQLKESGPGLVAPSQSLSITCTVSGFSLTSYAISWVRQPPGKGLEWLGVIWPGGGTNYNSALKSRLSISKDNSKSQVFLKMNSLQTDDTAKYYCARTGYYFDYWGQGTTLTVSS
VL: QLILTQSPAIMSASPGEKVTMTCSASLSVNYMYWFQQKPGTSPKRWIHDTSKLASGVPARFSGSGSGTSYSLTISSMEAEDAATYYCQQWSSNPPMYTFGGGTKLEIK
For B3, the binding result in experiment [1] is given as “no binding”.

B4: 8-A17-A (antibody, V domains shown)
VH: QVQLKESGPGLVAPSQSLSITCTVSGFSLTSYAISWVRQPPGKGLEWLGVVWPGGGTNYNSALKSRLSINKDNSKSQVFLKMNSLQTDDTGRYYCARTGYHFDYWGQGTTLTVSS
VL: QIVLTQSPAIMSASPGEKVTMTCSVSSSVSYMHWYQQKSGTSPKRWIYDTSKLASGVPARFSGSGSGTSYSLTISSMEAEDAATYYCQQWSSNPPMYTFGGGTKLEIK
For the molecule B4, the binding result in experiment [1] was “no binding”.

B5: 9-F6-A (antibody, V domains shown)
VH: EVQLQQSGPELVKPGASVKMSCKASGYTFTSYIMHWVKQKPGQGLEWIGYILPYNDGTKYNEKFKGKATLTSDKSSSTAYMELRSLTSEDSAVYYCARWGYSNFLDSWGQGTTLTVSS
VL: DIQMTQTTSSLSASLGDRVTISCRASQDINNYLNWYQQKPDGTVKLLIYYTSRLHSGVPSRFSGSGSGTDYSLTIRNLEQEDIATYFCQQGNTLPPTFGGGTKLEIK
Regarding B5, the binding result in experiment [1] was “no binding”.

B6: 6-O12-A (antibody, V domains shown)
VH: QVQLQQPGTELVKPGASVKLSCKASGYTFTSYWMHWVKQRPGQGLEWIGNINPSNGGTNYNEKFRSKATLTVDKSSSTAYMQLSSLTSEDSAVYYCARLGWFLPLGSWGQGTTLTVSS
VL: QIVLTQSPAIMSASLGEVITLTCSASSSVSYMHWYQQKSGTSPKLLIYSTSNLASGVPSRFSGSGSGTFYSLTISSVEAEDAADYYCHQWSGYMYTFGGGTKLEIK
With B6, the binding result in experiment [1] is on record as “no binding”.

B7: 2-G20-A (antibody, V domains shown)
VH: EVQLQQSGPELVKPGASVKMSCKASGYTFPSYVLHWVKQKPGQGLEWIGYIYPYNDGTNYNEKFKGKATLTSDKSSSTAYMELSSLTSEDSAVYYCARGDYGDSAWFPYWGQGTLVTVSA
VL: DIVLTQSPASLAVSLGQRATISCRASKSVSTSGYSYMHWYQQKPGQPPKLLIYLASNLKSGVPARFSGGGSGTDFTLNIHPVEEEDAATYYCQLSRELPWTFGGGTKLEIK
In the case of B7, the binding result in experiment [1] is recorded as “no binding”.
